Positions of bridges follow the written chain, without caps; N, C: chain ends.
T1: human IL-5Rα extracellular domain harvest with a MAb 179 epitope tag (human, UniProt Q01344 21-342)
T1 construct: extracellular domain; Captured on MAb179-conjugated AlphaScreen acceptor beads; also called IL-5 receptor; IL-5R-α chain ECD
T1 sequence (looked up): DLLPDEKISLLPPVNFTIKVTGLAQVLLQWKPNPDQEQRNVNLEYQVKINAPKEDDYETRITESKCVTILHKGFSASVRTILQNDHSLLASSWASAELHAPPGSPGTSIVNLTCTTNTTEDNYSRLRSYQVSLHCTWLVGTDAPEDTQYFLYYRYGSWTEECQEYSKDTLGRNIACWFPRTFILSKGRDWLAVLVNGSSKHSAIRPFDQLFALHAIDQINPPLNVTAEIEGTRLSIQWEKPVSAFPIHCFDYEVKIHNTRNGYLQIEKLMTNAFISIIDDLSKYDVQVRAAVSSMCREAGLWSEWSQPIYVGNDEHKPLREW

T2: human IL-5 receptor (Homo sapiens, UniProt P32927+Q01344)
T2 construct: endogenous in cells; host or cells: HL60 subclone induced towards eosinophil differentiation with sodium butyrate
T2 sequence (Q01344 21-420): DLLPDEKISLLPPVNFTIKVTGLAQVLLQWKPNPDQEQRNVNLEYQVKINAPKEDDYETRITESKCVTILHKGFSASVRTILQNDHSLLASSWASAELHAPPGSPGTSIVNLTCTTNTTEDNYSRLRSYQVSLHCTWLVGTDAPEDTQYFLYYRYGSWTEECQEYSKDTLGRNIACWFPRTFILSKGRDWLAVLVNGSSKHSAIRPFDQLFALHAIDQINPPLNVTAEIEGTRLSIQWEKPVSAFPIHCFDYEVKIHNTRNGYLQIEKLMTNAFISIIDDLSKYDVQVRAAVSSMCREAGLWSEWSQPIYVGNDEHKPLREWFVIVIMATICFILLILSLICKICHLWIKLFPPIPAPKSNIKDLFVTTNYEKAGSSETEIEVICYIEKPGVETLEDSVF
T2 sequence (P32927 17-897): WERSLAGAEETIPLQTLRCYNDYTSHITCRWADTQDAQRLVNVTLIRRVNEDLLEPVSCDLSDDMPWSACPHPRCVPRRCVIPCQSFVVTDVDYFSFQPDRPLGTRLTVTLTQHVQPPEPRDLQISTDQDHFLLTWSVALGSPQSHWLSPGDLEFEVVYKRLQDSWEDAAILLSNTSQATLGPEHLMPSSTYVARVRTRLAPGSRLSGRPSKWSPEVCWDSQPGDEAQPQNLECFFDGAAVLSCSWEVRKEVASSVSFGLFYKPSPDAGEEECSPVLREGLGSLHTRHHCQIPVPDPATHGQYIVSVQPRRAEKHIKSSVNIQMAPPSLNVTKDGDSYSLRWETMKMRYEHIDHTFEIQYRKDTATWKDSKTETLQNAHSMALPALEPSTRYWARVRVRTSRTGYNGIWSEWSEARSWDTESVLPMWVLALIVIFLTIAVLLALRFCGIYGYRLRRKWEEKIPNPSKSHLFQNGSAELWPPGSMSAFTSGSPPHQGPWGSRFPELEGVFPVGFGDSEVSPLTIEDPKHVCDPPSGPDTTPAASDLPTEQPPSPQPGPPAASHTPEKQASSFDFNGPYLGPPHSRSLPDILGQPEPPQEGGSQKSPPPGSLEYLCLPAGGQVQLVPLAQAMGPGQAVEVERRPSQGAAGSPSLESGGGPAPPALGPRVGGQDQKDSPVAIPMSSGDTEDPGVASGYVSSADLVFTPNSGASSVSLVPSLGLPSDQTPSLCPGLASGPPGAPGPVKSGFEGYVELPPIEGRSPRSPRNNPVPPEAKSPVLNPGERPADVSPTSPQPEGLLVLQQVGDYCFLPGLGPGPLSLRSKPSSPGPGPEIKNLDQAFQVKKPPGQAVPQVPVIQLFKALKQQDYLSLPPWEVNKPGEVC

T3: human IL-5Rα extracellular domain (Homo sapiens, UniProt Q01344)
T3 construct: human IL-5Rα extracellular domain harvest; made in house; host or cells: CHO cells
T3 sequence (Q01344 21-342 limits assumed): T1 sequence (looked up)


Target: T1, human IL-5Rα extracellular domain …
Assay: alanine scan of AF17121, AlphaQuest competition binding assay on human IL-5Rα ECD with the tracer biotinylated MBP-AF12368 (the assay is named by FIG. 1, not by the sentence)
Conditions: not given
Experimental: The affinity of compounds for the IL-5 receptor was tested in a homogeneous Alpha Quest binding assay. The peptides tested were solubilized at approximately 10 mM in DMSO. Each peptide was then serially diluted into freshly made, sterile filtered assay buffer (40 mM Hepes, pH 7.4 with NaOH, containing 1 mM MgCl₂, 0.1% BSA and 0.05% Tween-20). Four microliters of each test compound dilution was transferred in triplicate to a 384-well, low volume, white, polypropylene Griener plate (E&K Scientific #31075). A mixture was prepared in assay buffer containing Packard Bioscience AlphaScreen streptavidin coated donor beads at […], MAb179 (prepared as described in Whitehom, E., A Generic Method for Expression and Use of “Tagged” Soluble Versions of Cell Surface Receptor, Biotechnolgy 1995, 13, 1215-1219) conjugated Packard Bioscience Alpha Screen acceptor beads per manufactures protocol, at 40 ug/mL, and human IL-5Rα extracellular domain harvest with a MAb 179 epitope tag prepared as previously described (England, B., A Potent Dimeric Peptide Antagonist of Interleukin-5 that Binds Two Interleukin-5 Receptor α Chains, PNAS, vol.97, no. 12, 6862-6867). Two microliters of beads and receptor harvest mixture were added to each assay well. Alpha Quest beads are light sensitive so all steps after the introduction of the beads were carried out under green lighting (lights adapted with Roscolux Chroma Green #389 filter sleeves which transmit <1% at 680 nm). After a 5-10 minute room temperature incubation, two microliters of 62.4 nM biotinylated MBP-AF12368, […] (SEQ ID NO 73), tracer peptide (prepared as described in Schatz P., Use of Peptide Libraries to Map the Substrate Specificity of a Peptide-Modifying Enzyme: A 13 Residue Consensus Peptide Specifies Biotinylation in Escherichia coli, Biotechnology 1993, 11, 1138-1143) diluted in assay buffer was added to each well. The assay plate was spun to 55 rpm in a plate centrifuge, sealed with Packard Top Seal, wrapped in foil and placed in a room temperature incubator in the instrument room. The plate was read after 16-20 hours using a Packard Bioscience Alpha Quest Discovery™ plate reader.

| percent more potent than AF17121 (SEQ ID NO: 1) | Molecule |
| --- | --- |
| ~350% | Ac-ADECWRIIASHTWFCAEE-NH2 (disulfide 4-15 (inferred)) [AF35921 (Ac-Ala Asp Glu Cys Trp Arg Ile Ile Ala Ser His Thr Trp Phe Cys Ala Glu Glu-NH2)] |
| ~450% | Ac-VDECWRIIAAHTWFCAEE-NH2 (disulfide 4-15 (inferred)) [AF35912 (Ac-Val Asp Glu Cys Trp Arg Ile Ile Ala Ala His Thr Trp Phe Cys Ala Glu Glu-NH2)] |
| ~675% | Ac-VDACWRIIASHTWFCAEE-NH2 (disulfide 4-15 (inferred)) [AF35918 (Ac-Val Asp Ala Cys Trp Arg Ile Ile Ala Ser His Thr Trp Phe Cys Ala Glu Glu-NH2)] |
| ~135% | Ac-VDECWRIIASHAWFCAEE-NH2 (disulfide 4-15 (inferred)) [AF35910 (Ac-Val Asp Glu Cys Trp Arg Ile Ile Ala Ser His Ala Trp Phe Cys Ala Glu Glu-NH2)] |
| ~200% | Ac-VAECWRIIASHTWFCAEE-NH2 (disulfide 4-15 (inferred)) [AF35920 (Ac-Val Ala Glu Cys Trp Arg Ile Ile Ala Ser His Thr Trp Phe Cys Ala Glu Glu-NH2)] |

Target: T2, human IL-5 receptor
Assay: not given
Conditions: high affinity IL-5 binding sites; HL60 subclone, eosinophilic differentiation initiated with sodium butyrate; cited from earlier work

| Molecule | Kd |
| --- | --- |
| IL-5: lymphokine secreted by T cells and mast cells, having biological activities on B cells and eosinophils | 0.03 nM |

Target: T3, human IL-5Rα extracellular domain
Assay: IL-5 receptor-ligand Alpha Quest binding assay (alanine scan of AF17121, FIG. 1)
Conditions: relative to parent monomer AF17121 (SEQ ID NO:1); single Ala substitution
Experimental: The affinity of compounds for the IL-5 receptor was tested in a homogeneous Alpha Quest binding assay. The peptides tested were solubilized at approximately 10 mM in DMSO. Each peptide was then serially diluted into freshly made, sterile filtered assay buffer (40 mM Hepes, pH 7.4 with NaOH, containing 1 mM MgCl2, 0.1% BSA and 0.05% Tween-20). Four microliters of each test compound dilution was transferred in triplicate to a 384-well, low volume, white, polypropylene Griener plate (E&K Scientific #31075). A mixture was prepared in assay buffer containing Packard Bioscience AlphaScreen streptavidin coated donor beads at […], MAb179 (prepared as described in Whitehom, E., A Generic Method for Expression and Use of “Tagged” Soluble Versions of Cell Surface Receptor, Biotechnolgy 1995, 13, 1215-1219) conjugated Packard Bioscience Alpha Screen acceptor beads per manufactures protocol, at 40 ug/mL, and human IL-5Rα extracellular domain harvest with a MAb 179 epitope tag prepared as previously described (England, B., A Potent Dimeric Peptide Antagonist of Interleukin-5 that Binds Two Interleukin-5 Receptor α Chains, PNAS, vol.97, no. 12, 6862-6867). Two microliters of beads and receptor harvest mixture were added to each assay well. Alpha Quest beads are light sensitive so all steps after the introduction of the beads were carried out under green lighting (lights adapted with Roscolux Chroma Green #389 filter sleeves which transmit <1% at 680 nm). After a 5-10 minute room temperature incubation, two microliters of 62.4 nM biotinylated MBP-AF12368, GEVCTRDVANHRWMCGVD (SEQ ID NO 73), tracer peptide (prepared as described in Schatz P., Use of Peptide Libraries to Map the Substrate Specificity of a Peptide-Modifying Enzyme: A 13 Residue Consensus Peptide Specifies Biotinylation in Escherichia coli, Biotechnology 1993, 11, 1138-1143) diluted in assay buffer was added to each well. The assay plate was spun to 55 rpm in a plate centrifuge, sealed with Packard Top Seal, wrapped in foil and placed in a room temperature incubator in the instrument room. The plate was read after 16-20 hours using a Packard Bioscience Alpha Quest Discovery™ plate reader.
Results for various compound embodiments of the invention are depicted in FIGS. 1-4 and 6-8.

| more potent (peptide monomer with single alanine substitution) | Molecule |
| --- | --- |
| about 200% | Ac-Val Ala Glu Cys Trp Arg Ile Ile Ala Ser His Thr Trp Phe Cys Ala Glu Glu-NH2 (Ac-VAECWRIIASHTWFCAEE-NH2; not fully specified (bridges); printed as Ac-Val Ala Glu Cys Trp Arg Ile Ile Ala Ser His Thr Trp Phe Cys Ala Glu Glu-NH2; cysteine pairing not given here) [AF35920] |
| about 450% | Ac-VDECWRIIAAHTWFCAEE-NH2 (cysteine pairing not given here) [AF35912] |
| about 675% | Ac-Val Asp Ala Cys Trp Arg Ile Ile Ala Ser His Thr Trp Phe Cys Ala Glu Glu-NH2 (Ac-VDACWRIIASHTWFCAEE-NH2; not fully specified (bridges); printed as Ac-Val Asp Ala Cys Trp Arg Ile Ile Ala Ser His Thr Trp Phe Cys Ala Glu Glu-NH2; cysteine pairing not given here) [AF35918] |
| about 135% | Ac-VDECWRIIASHAWFCAEE-NH2 (cysteine pairing not given here) [AF35910] |
| about 350% | Ac-ADECWRIIASHTWFCAEE-NH2 (cysteine pairing not given here) [AF35921] |

— US20060014680A1, “Peptides and compounds that bind to the IL-5 receptor” (priority 2004, published 2006)
